Results published in the nanobody polyreactivity screen of Harvey et al. (2022).

test: yeast display, Sf9 membrane polyspecificity reagent, FACS + sequencing; frameworks hold sequencing errors
Outline: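 Nanobodies came from a synthetic yeast display library in Saccharomyces cerevisiae BJ5465, induced with galactose for 36–48 hours and stained for 1 hour at 4 °C with 10% biotinylated, detergent-solubilized Sf9 membrane reagent. Cells were enriched on streptavidin microbeads and then FACS-sorted, with low and high (top ~1%) gates set on anti-HA fluorescence for expression and streptavidin fluorescence for reagent binding. Each polyreactivity label reflects the gate a clone came from. Genes were amplified by colony PCR, sequenced by MiSeq 2 × 250 and filtered by CDR length.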

Row | Sequence | polyreactivity (PSR sort gate)
1 | QVQIVESGGGLDQAGGSLRLSCAASGSTFVLNPMGWYRQAPGKERGMVAAISSGGRTYYADSVKGRFTISRDNAKNTVYLQMNSLKPEDTAVYYCAANPYRGGHGTLFGYWGQGSQVTVSS | high polyreactivity
2 | QVQIVESGGGLFQAGGSLRLSCAASGLIFYSYAMGWYRQAPWKERELVAAISSGGGSTYYADSVKGRFTISRDNAKNTVYLQLNSLKPEDTAVYYCNRLYKYRTPDYDHWGQGTQVTVSS | high polyreactivity
3 | QVQIVESGGGLVEAGGSLRLSCAASGRTFWYIAMGWYRQSPGKASELVAAISYTGSRTYYADSVKGRFTISRYNAKNTVYLQMNSLKPDDTAVYYCNALARRPDAYAHYGYWGQGTQVSVSS | high polyreactivity
4 | QVQIVESGGGLVQAGGRLRLSFSASGIIFTGNAMGWYRQAPGKERELVAAITSGDTTNYADSVKGRFTISRDNAKNTVYLLMNSLKPEDTAVYYCAKELQVRQAGDYWGQGTQVTVSS | low polyreactivity
5 | QVQIVESGGGLVQAGGSHRLSCAASGSTFVYNAMGWYRQAPGIQRELVAAITVIGGRTYYADSVKGRFTISRDNAKNTVYLQMNSLKPEDTSVYYCNGTWAYRGHGYWGQGTEVTVSS | low polyreactivity
6 | QVQIVESGGGLVQAGGSHRLSCADSGRTFGVNTMGWYRQAPAKERQFVAAISSRSGSTYYADSVKGRFTISRDNAKNNVYLQMNSLKPEDTAVDYCAKGPLPRAGVKFDYWGHGTQVTVSS | low polyreactivity
7 | QVQIVESGGGLVQAGGSIRLSCAASGSIFYDNDMGWYRQAPAKERELVAAISWSASDTYYADSVKGRFTISRDNAKNTVYLQMNSLKPEDTAVYYCNAEVYEWYVVYSALDYWGQGTQVTVSS | low polyreactivity
8 | QVQIVESGGGLVQAGGSLRISCAATGSTFDSFAMGWYRQAPGKERELVDAITRRGTRTYYADSVKGRFTISRDNAKNTVYLQRNSLKPEDTAVYYCNAVTQCSKTPGYGFNYWGQGTQVTVSS | high polyreactivity
9 | QVQIVESGGGLVQAGGSLRISCPASGRTFNYNAMGWYRQAPGKERELVAAITSGASTNYADSVKGRFTISRDNAKNTVFLQINRLKPEDTAVYYCAKATYPHEYDYWGQGTQVNVSS | low polyreactivity
10 | QVQIVESGGGLVQAGGSLRLRCAASGRIFSWNAMGWSRQAPGKERELVPAITWRGTSTYYADSVKGRFTISRDIAKNTVYLQMISLKPEDTAVYFCNVGLYRDWYTFGLEYDYWGQGTQVSVSS | low polyreactivity
11 | QVQIVESGGGLVQAGGSLRLSCAASGFTFGHYAMGWYRQAPGKERELVAAISYSGVRTYYADSVKGRFTISRDNAKNTVYLQMNSLKPEDTAVYYCNKYPAHYQTRRYDYWGHGTQVTVSS | high polyreactivity
12 | QVQIVESGGGLVQAGGSLRLSCAASGFTFRAYAMGWYRQAPGKERELDAAISKSGGRTYYADSVKGRFTISRDNAKNTVYLQMNSLKPEDTAVYYCAKAYRRAFINNPDVYYYPDDYWGQGTQVTVSS | high polyreactivity
13 | QVQIVESGGGLVQAGGSLRLSCAASGGIFAVNAMGWYRQAPGKERELVASITRTGGSTSYEDSVKGRFTISRDNAKNTVYLQMNSLKPEDTAVYYCAAGWQVVLSTNGMDYWGQGTQVTVSS | high polyreactivity
14 | QVQIVESGGGLVQAGGSLRLSCAASGGTFPAYAMGWYRHAPGKERELVAAISDDDSTYYADSVKGRFTISRDNAKNTVYLQKNSLKPEDTAVYYCNVEYWYYPSVEYSWTAYDYWGQGTQVTVSS | low polyreactivity
15 | QVQIVESGGGLVQAGGSLRLSCAASGIIFYYYAMGWYRQAPGKERELVAAITKSGGSTYYADSVKGRFTISRDNAKNTVYLQMNSLKPEDTAVYYCAAEYSYYPLVGLDYWGQGTQVTVSS | low polyreactivity
16 | QVQIVESGGGLVQAGGSLRLSCAASGITFLWNVMGWYRQAPGKERELVATITSIGGITNYADSVKGRFTISRDNAKNSVYLQMNSLKTEDSAFYYCATQIVSGSRVDRNDYWGQGTQVTVSS | low polyreactivity

Row | Sequence | polyreactivity (PSR sort gate)
17 | QVQIVESGGGLVQAGGSLRLSCAASGLTLGRNAMGWYRQAPGKERELVAAITQSGGSTYYADSVKGRFTISRDNAKNTVYLQMNSLKPEDTAVYYCAAEVVRQWHGIGYDYWGHGTQVTVSS | low polyreactivity
18 | QVQIVESGGGLVQAGGSLRLSCAASGRIFDGNALGWYRQAPGKERELVAAISRIGGTYYADSVKGRFTISRDNAKNTVYLQMNRLKPEDTAVYYCAADPSSVGYHVEYDYWGQGTQVTVSS | low polyreactivity
19 | QVQIVESGGGLVQAGGSLRLSCAASGRIFFQYALGWYRQAPGKERELVAAIRYSGGSTYYADSVKGRFTISRDNAKNTVYLQMNSLKPEDTAVYYCAARYTRRHYDYWGQGTQVTVSS | high polyreactivity
20 | QVQIVESGGGLVQAGGSLRLSCAASGRIFGAYGMGWYRQAPGKERELVAAISNGGRTSYADSVKGRFTISRDNAKNTVYLQMNSLKPEDTAVYYCAAVYWQWYGAYDYWGQGTQVTVSS | high polyreactivity
21 | QVQIVESGGGLVQAGGSLRLSCAASGRIFVPYVMGWYRQAPGKERELVASISDSDTSTYYADSVKGRFTISRDNAKNTVYLQMNSLKPEDSAVYYCAAGVLRRATELYYWGQGTQVTVSS | low polyreactivity
22 | QVQIVESGGGLVQAGGSLRLSCAASGRIIGTYAMGWYRQAPGKERELVATISYSSGRTYYADSVKGRFTISRDNAKNTVYLQMNSLKPEVTAVYYCAAVGTGSSLRYDYWGQGTQVTVSS | high polyreactivity
23 | QVQIVESGGGLVQAGGSLRLSCAASGRIIRDYDMGWYRQAPGKERELVAAITFRSGSTYYADSEKGRFTISRDNAKNTVYLLMNSLKPEDTAVYYCADANSILLFDSWGQGTQVTLSS | low polyreactivity
24 | QVQIVESGGGLVQAGGSLRLSCAASGRILKYYAMGWYRPAPGKEREFVASIRYSGGSTYADSVKGRFTISRDNAKNTVYLQMNSLKPEDTAGYYCNAQLSWTKFAYRGMDYGGQGTQVTVSS | high polyreactivity
25 | QVQIVESGGGLVQAGGSLRLSCAASGRTFAWYAMGWYRQAPGKERELVAAITWSGGSTYYADSVKGRFTISRDNAKNTVYLQMNSLKPEETAVYYCAARTVVGWYSRYCYWGQGTQVTVSS | low polyreactivity
26 | QVQIVESGGGLVQAGGSLRLSCAASGRTFFPYAMGWYRQAPGKEREFVAAITKTDDSTYYADSVKGRFTISRDNAKNTVYLQMNSLKPEDTAVYYCAADRSISADYVVSVDYDYWGQGTQVTVSS | low polyreactivity
27 | QVQIVESGGGLVQAGGSLRLSCAASGRTFKGYAMAFYRQAPGKERELVAGISRGAGRTYYADSVKGRFTISRDNAKNTVYLQMNSLKPEDTAVYYCAAVPSYNSTSPFYYWGQGTQVTVSS | high polyreactivity
28 | QVQIVESGGGLVQAGGSLRLSCAASGRTFNAYAMGWYRPAPGKERELVAAISGNGGSTYYADSVKGRFTISRDNAKNTVYLQMNSLKPEDTAVYYCYKVQRSLLGYNSWGQGTEVTVSS | high polyreactivity
29 | QVQIVESGGGLVQAGGSLRLSCAASGRTFRGNVMGWSRQAPGKEREFVAAITRSGSNTYYADSVKGRFTISRDNAKNTVYLQMNSLKPEDTAVYYCAKSVLLGYKRHDSWGQGTQVTVSS | high polyreactivity
30 | QVQIVESGGGLVQAGGSLRLSCAASGRTFWRYTMGWYRQAPGKERELVASISTGGGSTYYADSVKGRFTISRDNAKNTVYLQMNSLKPEDTAVYYCNVEYVSVSRVWRGNYWGQGTQVTVSS | low polyreactivity
31 | QVQIVESGGGLVQAGGSLRLSCAASGSIFKIYEMGWYRLAPGKEREMVASMTCSGGSTYYADSVKGRFTISRDNAKNTVYLQRNSLKPEDTAGYYCAAAVLGSSKSEVDPDRPEYYYWGQGTQVTVSS | low polyreactivity
